Laboratory results published in patent publication US20210121527A1, “METHODS OF TREATING MINIMAL RESIDUAL CANCER” (ICAHN SCHOOL OF MEDICINE AT MOUNT SINAI, priority 2018, published 2021).

Tests used:
HEp3 HNSCC cells = assay: ERK/p38 activity ratio, dormancy mRNAs and NR2F1 in HEp3 cells; format: cell-based
Protocol: The effect on the ERK/p38 activity ratio is observed after 2-6 and 24 hours (second through fourth group of columns). In the first 30 minutes, ERK activity is stimulated by BMP7 (first column set). […] Arrows indicate NR2F1 flourescence. Differences in FIG. 13A and FIG. 13B, p<0.05 as calculated using Student's t test.
BMP7-F9 reduces the ERK/p38 activity ratio and induces various mRNAs in the dormancy signature (FIGS. 13A-13C). […] The effect on the ERK/p38 activity ratio is observed after 2-6 and 24 hours (second through fourth group of columns). In the first 30 minutes ERK activity is stimulated by BMP7 (first column set). […] Differences in FIG. 13A and FIG. 13B, p<0.05 as calculated using Student's t test.

T-HEp3 cells [1] = assay: Cell titer blue proliferation assay; format: cell-based; conditions: 48 hours
T-HEp3 cells [2] = assay: T-HEp3 tumors on chicken embryo chorioallantoic membranes (CAM); format: in vivo; conditions: 24 hours pre-treatment, then 50 ng/ml daily
Protocol: FIG. 14B is a schematic illustration of the in vivo experimental procedure used in FIGS. 14C-14D. T-HEp3 cells were pre-treated for 24 hours with BMP7-F9 in vitro and then inoculated on chicken embryo chorioallantoic membranes (“CAM”s) (FIG. 14C), where they were treated daily in vivo with vehicle or BMP7-F9 (50 ng/ml) prior to collection of the tumors and quantification of number of HEp3 HNSCC cells (FIG. 14D) and levels of P-H3 (FIG. 14E). Arrows in FIG. 14E indicate overlapping P-H3 and DAPI fluorescence.
FIG. 14B is a schematic illustration of the in vivo experimental procedure used in FIGS. 14C-14D. T-HEp3 cells were pre-treated for 24 hours with BMP7-F9 in vitro and then inoculated on chicken embryo chorioallantoic membranes (CAMs) (FIG. 14C), where they were treated daily in vivo with vehicle or BMP7-F9 (50 ng/ml) prior to collection of the tumors and quantification of number of HEp3 HNSCC cells/tumor (FIG. 14D) and levels of P-H3 (FIG. 14E).

HEp3-GFP HNSCC tumors = assay: HEp3-GFP HNSCC tumor surgery model in NSG mice, local recurrence and lung DCCs; format: in vivo, mouse
Source text: FIGS. 15A-15C show the evaluation of BMP7-F9 treatment in a mouse model of disease. FIG. 15A is a schematic illustration of an in vivo experimental procedure used to evaluate the effect of BMP7-F9 on metastasis initiation. […] Tumors were then removed via surgery. 1-2 days after surgery, the adjuvant treatment with BMP7-F9 was continued for another 3, 4, or 6 weeks. Animals were then euthanized and the DCC burden in lung was scored using fluorescence microscopy. […] At those time points, the percentage of local recurrence and DCC incidence was scored. In FIG. 15C, mice were treated as in FIG. 15A, except that the adjuvant treatment was for 4 weeks. The number of GFP positive cells in dissociated lungs was scored following treatment. […] Note that the median of DCC burden drops one log and that BMP-7 apparently cures from DCCs 3 of 7 animals.
Tumors were then removed via surgery. 1-2 days after surgery, the adjuvant treatment with BMP7-F9 was continued for another 4 weeks. Animals were then euthanized and the DCC burden in lung was scored using fluorescence microscopy. […] NSG mice were treated following the protocol in FIG. 15A for 4 weeks. At those time points, the percentage of local recurrence and DCC incidence was scored. The number of GFP positive cells in dissociated lungs was scored following treatment. […] Note that the median of DCC burden drops one log and that BMP-7 apparently cures from DCCs 3 of 7 animals.

[3] = adjuvant treatment only, 3 weeks
[4] = adjuvant treatment only, 6 weeks
[5] = neo-adjuvant and adjuvant treatment, 4 weeks

B1: BMP7-F9: variant of human mature BMP7, homodimer of SEQ ID NO:8 (protein, listed as Homo sapiens)
chain: STGSKQRSQNRSKTPKNQEALRMANVAENSSSDQRQACKKHELYVSFRDLGWQDWIIAPEGYAAGYCEGECAFPLNSYMNATNHALVQTLVHVINPETVPKPCCAPTQLGAISVLYFDDSSNVILKKWRNMVVRACGCH
modifications: homodimer
DEC2, p53 and p27 mRNAs (HEp3 HNSCC cells; 10 ng/ml, 24 hours): induces DEC2, p53, and p27 mRNAs
nuclear NR2F1 (immunofluorescence) (HEp3 HNSCC cells; 10 ng/ml, 24 hours): induces nuclear accumulation of NR2F1
ERK/p38 activity ratio (Western blot) (HEp3 HNSCC cells; 2, 5 and 10 ng/ml, 2-6 and 24 hours): reduces the ERK/p38 activity ratio over control
proliferation in vitro (cell titer blue) (T-HEp3 cells [1]): inhibits their proliferation in vitro
growth of T-HEp3 cells in vivo (CAM) (T-HEp3 cells [2]): induces growth arrest of T-HEp3 cells
+DCCs in lungs (animals) (HEp3-GFP HNSCC tumors; [3]): 5
+local recurrence (animals) (HEp3-GFP HNSCC tumors; [3]): 1
DCC incidence (%) (HEp3-GFP HNSCC tumors; [3]): 50.0%
Local recurrence incidence (%) (HEp3-GFP HNSCC tumors; [3]): 9.1%
Median number of GFP^+/Vimentin^+ tumor cells/lung (HEp3-GFP HNSCC tumors; [3]): 0.62E+04
+DCCs in lungs (animals) (HEp3-GFP HNSCC tumors; [4]): 3
+local recurrence (animals) (HEp3-GFP HNSCC tumors; [4]): 0
DCC incidence (%) (HEp3-GFP HNSCC tumors; [4]): 42.9%
Local recurrence incidence (%) (HEp3-GFP HNSCC tumors; [4]): 0.0%
Median number of GFP^+/Vimentin^+ tumor cells/lung (HEp3-GFP HNSCC tumors; [4]): 0
+DCCs in lungs (animals) (HEp3-GFP HNSCC tumors; [5]): 4
+local recurrence (animals) (HEp3-GFP HNSCC tumors; [5]): 3
DCC incidence in lungs % (HEp3-GFP HNSCC tumors; [5]): 57.1%
Median number of GFP^+/Vimentin^+ tumor cells/lung (HEp3-GFP HNSCC tumors; [5]): 0.02E+04
animals apparently cured from DCCs (HEp3-GFP HNSCC tumors; [5]): 3 of 7
local recurrence % (HEp3-GFP HNSCC tumors; [5]): 42.9%
median of DCC burden in lungs (HEp3-GFP HNSCC tumors; [5]): drops one log
